Substitutions are numbered along the chain they refer to. Values belong to the binder of their own block, whether it stands above or below them.
Tests used:
[1] = target: T1, human Fzd1 hinge region (human); experiment: SPR; ** = 1 uM > KD > 100 nM
T1 construct: also called hFzd1L
T1 peptide: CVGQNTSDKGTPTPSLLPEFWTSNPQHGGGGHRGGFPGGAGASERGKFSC
Procedure: (§1) Certain VL and VH clones from Table 1 were PCR amplified from the phage clone and sub-cloned into pcDNA3.1 based mammalian expression vectors (Invitrogen/ThermoFisher) of human kappa or lambda light chain and human IgG1 heavy chain, respectively. Candidate IgGs were purified using Protein A affinity resin. The candidate library was captured on an anti-FC lawn. The capture lawn was prepared by direct amine coupling goat anti-human IgG Fc (Southern Biotech #2048-01) at 8000 RU on a HC200M Carterra sensor chip (Carterra 4297). Capture levels were at least 600 RU for each candidate IgG. Binding to all target peptides was measured at 25° by injecting a concentration series of each peptide in 1×PBST+0.5 mg/mL BSA (TEKnova P1192, VWR V0332). All peptides were injected at 4.12 nM, 12.3 nM, 37 nM, 111 nM, 333 nM, and 1000 nM. Two blank injections were run between each peptide concentration series. Each injection started with a one minute baseline determination, followed by a five minute association phase where peptides were injected, and finished with a 10 minute dissociation phase. Binding data was analyzed using NextGenKIT (Carterra). Blank injections and reference locations were subtracted from all runs prior to fitting a 1:1 binding model to the data. […] Interactions with an Rₘₐₓ less than 15 RU or weaker than 5 μM were considered non-binders.

[2] = target: T2, mouse Fzd1 hinge region (mouse, UniProt O70421 222-271, limits assumed); experiment: SPR; ** = 1 uM > KD > 100 nM
T2 construct: domain: hinge region; also called mFzd1L
T2 peptide (looked up): T1 peptide with H32Y, F36Y, A42T, S43V
Procedure: as §1

[3] = target: T3, human Fzd10 hinge region (human); experiment: SPR
T3 construct: also called hFzd10L
T3 peptide: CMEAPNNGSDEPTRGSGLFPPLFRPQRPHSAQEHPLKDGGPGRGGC
Procedure: as §1

[4] = target: T4, mouse Fzd8 hinge region (mouse, UniProt Q61091 148-225, limits assumed); experiment: SPR
T4 construct: domain: hinge region; also called mFzd8L; mFzd8
T4 sequence (peptide, looked up): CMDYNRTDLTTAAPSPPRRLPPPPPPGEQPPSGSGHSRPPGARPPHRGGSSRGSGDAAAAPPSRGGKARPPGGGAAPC
Procedure: as §1

[5] = target: T5, mouse Fzd7 hinge region (mouse, UniProt Q61090 160-208, limits assumed); experiment: SPR
T5 construct: domain: hinge region; also called mFzd7L
T5 peptide (looked up): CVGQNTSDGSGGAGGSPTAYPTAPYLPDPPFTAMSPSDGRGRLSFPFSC
Procedure: as §1

[6] = target: T6, human Fzd3 hinge region (human); experiment: SPR
T6 construct: also called hFzd3L
T6 peptide: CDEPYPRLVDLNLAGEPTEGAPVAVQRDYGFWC
Procedure: as §1

[7] = target: T7, mouse Fzd5 hinge region (mouse, UniProt Q9EQD0 147-182, limits assumed); experiment: SPR
T7 construct: domain: hinge region; also called mFzd5L
T7 peptide (looked up): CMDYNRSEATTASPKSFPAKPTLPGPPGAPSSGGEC
Procedure: as §1

[8] = target: T8, human Fzd9 hinge region (human); experiment: SPR
T8 construct: also called hFzd9L; hFzd9
T8 peptide: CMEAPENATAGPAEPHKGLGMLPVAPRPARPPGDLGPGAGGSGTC
Procedure: as §1

[9] = target: T9, mouse Fzd3 hinge region (mouse, UniProt Q61086 133-165, limits assumed); experiment: SPR
T9 construct: domain: hinge region; also called mFzd3L
T9 peptide (looked up): T6 peptide with A14V, E16D
Procedure: as §1

[10] = target: T10, mouse Fzd10 hinge region (mouse, UniProt Q8BKG4 148-193, limits assumed); experiment: SPR
T10 construct: domain: hinge region; also called mFzd10L
T10 peptide (looked up): T3 peptide with T13S, L18M, G44A
Procedure: as §1

[11] = target: T11, human Fzd4 hinge region (human); experiment: SPR
T11 construct: also called hFzd4L
T11 peptide: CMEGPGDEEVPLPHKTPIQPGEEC
Procedure: as §1

[12] = target: T12, mouse Fzd2 hinge region (mouse, UniProt Q9JIP6 155-206, limits assumed); experiment: SPR
T12 construct: domain: hinge region; also called mFzd2L
Procedure: as §1

[13] = target: T13, mouse Fzd4 hinge region (mouse, UniProt Q61088 158-181, limits assumed); experiment: SPR
T13 construct: domain: hinge region; also called mFzd4L
T13 peptide (looked up): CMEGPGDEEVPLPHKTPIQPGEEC
Procedure: as §1

[14] = target: T14, human Fzd5 hinge region (human); experiment: SPR
T14 construct: also called hFzd5L
T14 peptide: T7 peptide (looked up) with S13P, K15R, S16P, S31A
Procedure: as §1

[15] = target: T15, human Fzd2 hinge region (human); experiment: SPR
T15 construct: also called hFzd2L
T15 peptide: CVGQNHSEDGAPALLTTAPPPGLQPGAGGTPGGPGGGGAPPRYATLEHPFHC
Procedure: as §1

[16] = target: T16, human Fzd6 hinge region (human); experiment: SPR
T16 construct: also called hFzd6L
T16 peptide: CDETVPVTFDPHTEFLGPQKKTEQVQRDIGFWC
Procedure: as §1

[17] = target: T17, mouse Fzd6 hinge region (mouse, UniProt Q61089 129-161, limits assumed); experiment: SPR
T17 construct: domain: hinge region; also called mFzd6L
T17 peptide (looked up): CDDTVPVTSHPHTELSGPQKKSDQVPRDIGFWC
Procedure: as §1

[18] = target: T18, mouse Fzd9 hinge region (mouse, UniProt Q9R216 153-197, limits assumed); experiment: SPR
T18 construct: domain: hinge region; also called mFzd9
T18 peptide (looked up): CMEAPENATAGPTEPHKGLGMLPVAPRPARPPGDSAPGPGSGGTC
Procedure: as §1

[19] = target: Fzd1 CRD (UniProt Q9UP38 105-232); experiment: BLI (Octet Red 96), biotinylated Fzd1 CRD on streptavidin biosensor
Procedure: Binding kinetics of monospecific Fzd binders to either (CRD) or the extracellular hinge region (hinge) was determined by bio-layer interferometry (BLI) using Octet Red 96 (PALL ForteBio, Fremont, Calif.) instruments at 30° C., 1000 rpm with streptavidin (SA) biosensors. N-terminal biotinylated Fzd1 or Fzd2 CRD and Fzd1 or Fzd 2 hinge proteins were captured on the SA biosensor. Following capture of biotinylated-Fzd1 or Fzd2, the SA biosensor with captured […] was dipped into wells containing the relevant antibodies at 7 different concentrations in running buffer plus a well with only running buffer as a reference channel. KD was determined by global fitting. As shown in FIGS. 4A-4H these antibody fusion proteins only bound to either Fzd1 or Fzd2 protein with the hinge region, and not to the CRD domains alone.

[20] = target: T1, human Fzd1 hinge region; experiment: SPR; *** = 100 nM > KD > 10 nM
Procedure: as §1

[21] = target: T2, mouse Fzd1 hinge region; experiment: SPR; *** = 100 nM > KD > 10 nM
Procedure: as §1

[22] = target: T1, human Fzd1 hinge region; experiment: SPR; **** = 10 nM > KD
Procedure: as §1

[23] = target: T2, mouse Fzd1 hinge region; experiment: SPR; **** = 10 nM > KD
Procedure: as §1

[24] = target: T19, hFzd2L (human, UniProt Q14332 150-201); experiment: phage ELISA, antigen on plate
T19 construct: ELISA antigen; also called human Fzd2 hinge region; Frizzled 2
Procedure: Detection of bound phage was determined calorimetrically by turnover of TMB substrate (Thermo Fisher Scientific, Waltham, Mass.) at […] by anti-M13-HRP antibody (GE Healthcare, Pittsburgh, Pa.). Clones were identified as binding to a Fzd receptor when the fold OD 450 nm over background was greater than a threshold level.

B1: 033S-D02 (antibody, V domains shown)
VH: QVQLVQSGAEVKKPGSSVKVSCKASGITFTSSAVHWVRQAPGQGLEWLGIINPSGGSTSYAQKFQGRVTITADESTSTAYMELSSLRSEDTAVYYCARRMVYAPYKDVWGKGTMVTVSS
VL: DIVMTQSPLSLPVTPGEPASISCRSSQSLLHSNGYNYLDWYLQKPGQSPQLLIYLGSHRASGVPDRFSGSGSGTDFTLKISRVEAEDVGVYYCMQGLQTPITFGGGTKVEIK
notes: human IgG1, human kappa or lambda light chain; also called 33SD2
KD [1]: 100 to 1000 nM | KD [2]: 100 to 1000 nM | binding result [3]: no binding (tested: 5 uM) | binding result [4]: no binding (tested: 5 uM) | binding result [5]: no binding (tested: 5 uM) | binding result [6]: no binding (tested: 5 uM) | binding result [7]: no binding (tested: 5 uM) | binding result [8]: no binding (tested: 5 uM) | binding result [9]: no binding (tested: 5 uM) | binding result [10]: no binding (tested: 5 uM) | binding result [11]: no binding (tested: 5 uM) | binding result [12]: no binding (tested: 5 uM) | binding result [13]: no binding (tested: 5 uM) | binding result [14]: no binding (tested: 5 uM) | binding result [15]: no binding (tested: 5 uM) | binding result [16]: no binding (tested: 5 uM) | binding result [17]: no binding (tested: 5 uM) | binding result [18]: no binding (tested: 5 uM)

B3: 033S-E02 (antibody, V domains shown)
VH: QVQLVQSGAEVKKPGSSVKVSCKASGGTFTSYAISWVRQAPGQGLEWMGMINPSGGRTTYAQKFQGRVTITADESTSTAYMKLSSLRSEDTAVYYCAIRTIFGVVIDYWGQGTLVTVSS
VL: not shown
notes: human IgG1, human kappa or lambda light chain; also called 33SE2
KD [20]: 10 to 100 nM | KD [21]: 10 to 100 nM | binding result [3]: no binding (tested: 5 uM) | binding result [4]: no binding (tested: 5 uM) | binding result [5]: no binding (tested: 5 uM) | binding result [6]: no binding (tested: 5 uM) | binding result [7]: no binding (tested: 5 uM) | binding result [8]: no binding (tested: 5 uM) | binding result [9]: no binding (tested: 5 uM) | binding result [10]: no binding (tested: 5 uM) | binding result [11]: no binding (tested: 5 uM) | binding result [12]: no binding (tested: 5 uM) | binding result [13]: no binding (tested: 5 uM) | binding result [14]: no binding (tested: 5 uM) | binding result [15]: no binding (tested: 5 uM) | binding result [16]: no binding (tested: 5 uM) | binding result [17]: no binding (tested: 5 uM) | binding result [18]: no binding (tested: 5 uM)

B5: 033S-B03 (antibody, V domains shown)
VH: QVQLVQSGAEVKKPGSSVKVSCKASGYTFTGQYMHWVRQAPGQGLEWMGGIIPIFGTAHYPQKFQGRVTITADESTSTAYMELSSLRSEDTAVYYCARRSVAAGTPFTDYWGQGTLVTVSS
VL: not shown
notes: human IgG1, human kappa or lambda light chain; also called 33SB3
KD [22]: < 10 nM | KD [23]: < 10 nM | binding result [3]: no binding (tested: 5 uM) | binding result [4]: no binding (tested: 5 uM) | binding result [5]: no binding (tested: 5 uM) | binding result [6]: no binding (tested: 5 uM) | binding result [7]: no binding (tested: 5 uM) | binding result [8]: no binding (tested: 5 uM) | binding result [9]: no binding (tested: 5 uM) | binding result [10]: no binding (tested: 5 uM) | binding result [11]: no binding (tested: 5 uM) | binding result [12]: no binding (tested: 5 uM) | binding result [13]: no binding (tested: 5 uM) | binding result [14]: no binding (tested: 5 uM) | binding result [15]: no binding (tested: 5 uM) | binding result [16]: no binding (tested: 5 uM) | binding result [17]: no binding (tested: 5 uM) | binding result [18]: no binding (tested: 5 uM)

B7: 031S-B02 (antibody, V domains shown)
VH: EVQLLESGGGLVQPGGSLRLSCAASGFTFSSYWMSWVRQAPGKGLEWVSAIGGSGANAYYADSVKGRFTISRDNSKNTLYLQMNSLRAEDTAVYYCVRDTNWAFDLWGQGTMVTVSS
VL: EIVMTQSPATLSVSPGERATLSCRASQSVSGSYLAWYQQKPGQAPRLLIYGASTRATGIPARFSGSGSGTEFTLTISSLQSEDFAVYYCQQYGSSPLTFGQGTKVEIK
notes: also called 31SB2
binding result [24]: binds

The next lines start with the values.

binding result [19]: no binding
B2: 033S-D02 Fab (Fab, V domains shown)
VH: B1 VH
VL: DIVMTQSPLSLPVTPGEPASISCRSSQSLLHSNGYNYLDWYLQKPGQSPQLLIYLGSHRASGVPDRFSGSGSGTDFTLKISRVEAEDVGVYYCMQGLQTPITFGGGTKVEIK
notes: also called 33SD2

binding result [19]: no binding
B4: 033S-E02 Fab (Fab, V domains shown)
VH: B3 VH
VL: not shown
notes: also called 33SE2

binding result [19]: no binding
B6: 033S-B03 Fab (Fab, V domains shown)
VH: B5 VH
VL: not shown
notes: also called 33SB3

Source: patent US20220275095A1 (SURROZEN OPERATING, published 2022)
